The term stoichiometry N denotes a count of units in the complex or per binding partner.

Experimental findings from article PMC13011424 are described below.

The target of experiment [1] is BG505 SOSIP.v4.1 Env trimer produced in STT3B-KO HEK293T cells (HIV-1 strain BG505 (clade A)). Kind of experiment: SEC; SEC of Ni-NTA-purified Env on a Superdex 200 10/300 GL column; trimer, dimer and monomer peaks. Background: In gel filtration, larger molecules generally elute earlier.
Experiment [2] has the same target. Kind of experiment: native gel or EMSA. Background: A gel shift assay detects complexes by their altered migration in electrophoresis.
Experiment [3] has as its target BG505 SOSIP.v4.1 Env trimer produced in wild-type (WT) HEK293T cells (HIV-1 strain BG505 (clade A)). As to the kind of experiment: SEC; SEC of Ni-NTA-purified Env on a Superdex 200 10/300 GL column; trimer, dimer and monomer peaks.
The target is the same in experiment [4]. Kind of experiment: native gel or EMSA.
The target in experiment [5] is BG505 SOSIP.v4.1 Env trimer produced in STT3A-KO HEK293T cells (HIV-1 strain BG505 (clade A)). As to the kind of experiment: SEC; SEC of Ni-NTA-purified Env on a Superdex 200 10/300 GL column; trimer, dimer and monomer peaks.
The target is the same in experiment [6]. As to the kind of experiment: native gel or EMSA.

Consider “BG505 SOSIP.v4.1 Env trimer produced in STT3B-KO HEK293T cells (complex)”, for which the stoichiometry N in experiment [1] and in experiment [2] was 3 each time.
“BG505 SOSIP.v4.1 Env trimer produced in wild-type (WT) HEK293T cells (complex)”: the stoichiometry N in experiment [3] and in experiment [4] was 3 throughout.
As to “BG505 SOSIP.v4.1 Env trimer produced in STT3A-KO HEK293T cells (complex)”, the stoichiometry N in experiment [5] and in experiment [6] was 3 each time.
